Measured values: the supplement of paper PMC9112550, “Optimization of the antimicrobial peptide Bac7 by deep mutational scanning” (BMC Biology, 2022)

Each sequence was assayed on Escherichia coli TOP10 (assay: shrunken log2 fold change of peptide-encoding DNA abundance (4.5 h post-induction vs induction); higher = less antimicrobial activity (less host growth inhibition)). Conditions: time post-induction: 4.5 h; library: site-saturation at positions 5, 18, 19, 20.
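Further: peptides expressed intracellularly from a pBAD plasmid library in pooled LB shake-flask culture, induced with 0.3% L-arabinose, DNA abundance read by NGS, three biological replicates, DESeq2 with apeglm shrinkage.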

Row | Sequence | shrunken log2 fold change
1 | RRIRQRPPRLPRPRPRPPAHPRP | 0.0556
2 | RRIRCRPPRLPRPRPRPFNEPRP | -0.799
3 | RRIRQRPPRLPRPRPRPAEMPRP | -0.0227
4 | RRIRNRPPRLPRPRPRPSRAPRP | 0.121
5 | RRIRVRPPRLPRPRPRPYHYPRP | -1.93
6 | RRIRVRPPRLPRPRPRPQLIPRP | -0.334
7 | RRIRMRPPRLPRPRPRPCPCPRP | 0.495
8 | RRIRGRPPRLPRPRPRPNLCPRP | -0.0201
9 | RRIRERPPRLPRPRPRPWFGPRP | 0.0197
10 | RRIRPRPPRLPRPRPRPVKHPRP | -0.0566
11 | RRIRWRPPRLPRPRPRPQIMPRP | -0.0336
12 | RRIRWRPPRLPRPRPRPGFYPRP | 0.0692
13 | RRIRHRPPRLPRPRPRPQSYPRP | -0.175
14 | RRIRTRPPRLPRPRPRPILWPRP | 0.0348
15 | RRIRPRPPRLPRPRPRPRPDPRP | 0.45
16 | RRIRRRPPRLPRPRPRPYGLPRP | -0.0176
17 | RRIRMRPPRLPRPRPRPHAVPRP | 0.353
18 | RRIRTRPPRLPRPRPRPQHNPRP | -0.324
19 | RRIRARPPRLPRPRPRPKSLPRP | -0.109
20 | RRIRGRPPRLPRPRPRPQVEPRP | -0.0312
21 | RRIRMRPPRLPRPRPRPYIYPRP | -0.384
22 | RRIRGRPPRLPRPRPRPPPIPRP | 1.16
23 | RRIRGRPPRLPRPRPRPNVCPRP | -0.237
24 | RRIRMRPPRLPRPRPRPKCWPRP | 1
25 | RRIRMRPPRLPRPRPRPYPQPRP | 0.0818

Row | Sequence | shrunken log2 fold change
26 | RRIRLRPPRLPRPRPRPSQKPRP | 0.00285
27 | RRIRLRPPRLPRPRPRPSKIPRP | -0.349
28 | RRIRVRPPRLPRPRPRPSTQPRP | -0.0637
29 | RRIRHRPPRLPRPRPRPSPGPRP | -0.051
30 | RRIRRRPPRLPRPRPRPIDIPRP | -0.118
31 | RRIRPRPPRLPRPRPRPQSHPRP | -0.291
32 | RRIRDRPPRLPRPRPRPYFCPRP | -0.177
33 | RRIRARPPRLPRPRPRPIDIPRP | 0.0327
34 | RRIRMRPPRLPRPRPRPDVRPRP | 0.111
35 | RRIRMRPPRLPRPRPRPELIPRP | 3.16
36 | RRIRRRPPRLPRPRPRPGLQPRP | -0.0644
37 | RRIRERPPRLPRPRPRPKGFPRP | 0.0527
38 | RRIRWRPPRLPRPRPRPSGNPRP | -0.0162
39 | RRIRLRPPRLPRPRPRPNDVPRP | -0.111
40 | RRIRYRPPRLPRPRPRPSKLPRP | -0.917
41 | RRIRCRPPRLPRPRPRPMKMPRP | -0.0497
42 | RRIRHRPPRLPRPRPRPPVVPRP | 0.253
43 | RRIRNRPPRLPRPRPRPHFAPRP | 0.0588
44 | RRIRHRPPRLPRPRPRPQGKPRP | -0.0805
45 | RRIRNRPPRLPRPRPRPPVGPRP | 0.444
46 | RRIRTRPPRLPRPRPRPLRRPRP | 0.323
47 | RRIRSRPPRLPRPRPRPHFRPRP | -0.197
48 | RRIRTRPPRLPRPRPRPHGLPRP | -0.034
49 | RRIRLRPPRLPRPRPRPDCTPRP | 0.0972
50 | RRIRLRPPRLPRPRPRPNARPRP | 0.1

Row | Sequence | shrunken log2 fold change
51 | RRIRLRPPRLPRPRPRPWYIPRP | -0.137
52 | RRIRCRPPRLPRPRPRPHKFPRP | -0.742
53 | RRIRHRPPRLPRPRPRPMQGPRP | -0.0154
54 | RRIRDRPPRLPRPRPRPKPQPRP | 0.111
55 | RRIRWRPPRLPRPRPRPTHDPRP | 0.196
56 | RRIRRRPPRLPRPRPRPNFYPRP | -0.124
57 | RRIRMRPPRLPRPRPRPWMAPRP | -0.0347
58 | RRIRYRPPRLPRPRPRPDCAPRP | -0.218
59 | RRIRHRPPRLPRPRPRPMNPPRP | -0.379
60 | RRIRLRPPRLPRPRPRPPPRPRP | 1.66
61 | RRIRCRPPRLPRPRPRPLKYPRP | -0.566
62 | RRIRHRPPRLPRPRPRPKMDPRP | -0.014
63 | RRIRRRPPRLPRPRPRPCGGPRP | 0.686
64 | RRIRMRPPRLPRPRPRPMKEPRP | -0.0707
65 | RRIRYRPPRLPRPRPRPTSPPRP | -0.0595
66 | RRIRWRPPRLPRPRPRPANQPRP | 0.559
67 | RRIRCRPPRLPRPRPRPMDIPRP | 0.00412
68 | RRIRDRPPRLPRPRPRPSVDPRP | 0.0621
69 | RRIRKRPPRLPRPRPRPWDVPRP | 0.0155
70 | RRIRHRPPRLPRPRPRPFMKPRP | -0.00214
71 | RRIRVRPPRLPRPRPRPINEPRP | -0.3
72 | RRIRDRPPRLPRPRPRPSKEPRP | -0.031
73 | RRIRKRPPRLPRPRPRPNWAPRP | 0.279
74 | RRIRDRPPRLPRPRPRPPHLPRP | 0.0118
75 | RRIRARPPRLPRPRPRPYVQPRP | -0.471

Row | Sequence | shrunken log2 fold change
76 | RRIRHRPPRLPRPRPRPWIGPRP | -0.0136
77 | RRIRERPPRLPRPRPRPETGPRP | -0.373
78 | RRIRLRPPRLPRPRPRPIHNPRP | -1.05
79 | RRIRRRPPRLPRPRPRPHWTPRP | -0.12
80 | RRIRDRPPRLPRPRPRPGWTPRP | 0.379
81 | RRIRERPPRLPRPRPRPGIGPRP | -0.0295
82 | RRIRHRPPRLPRPRPRPMFQPRP | -0.0107
83 | RRIRNRPPRLPRPRPRPCCPPRP | -0.0502
84 | RRIRMRPPRLPRPRPRPDMWPRP | 0.805
85 | RRIRARPPRLPRPRPRPPRMPRP | 0.949
86 | RRIRKRPPRLPRPRPRPFWEPRP | 0.341
87 | RRIRRRPPRLPRPRPRPWLGPRP | 0.353
88 | RRIRSRPPRLPRPRPRPMMIPRP | -0.196
89 | RRIRCRPPRLPRPRPRPKNPPRP | 1.17
90 | RRIRDRPPRLPRPRPRPQCIPRP | -0.0275
91 | RRIRVRPPRLPRPRPRPRGCPRP | 0.374
92 | RRIRNRPPRLPRPRPRPHATPRP | 0.00661
93 | RRIRDRPPRLPRPRPRPKGMPRP | -0.00453
94 | RRIRGRPPRLPRPRPRPHNQPRP | 0.05
95 | RRIRGRPPRLPRPRPRPFCTPRP | 0.157
96 | RRIRPRPPRLPRPRPRPGIFPRP | 0.0736
97 | RRIRARPPRLPRPRPRPSSSPRP | 0.185
98 | RRIRQRPPRLPRPRPRPFTNPRP | -0.0235
99 | RRIRGRPPRLPRPRPRPPYPPRP | 0.291
100 | RRIRFRPPRLPRPRPRPPYQPRP | -0.125

Row | Sequence | shrunken log2 fold change
101 | RRIRHRPPRLPRPRPRPYIWPRP | -0.431
102 | RRIRSRPPRLPRPRPRPNFGPRP | -0.265
103 | RRIRERPPRLPRPRPRPSLEPRP | -0.199
104 | RRIRTRPPRLPRPRPRPGPNPRP | -0.0314
105 | RRIRPRPPRLPRPRPRPMKGPRP | 0.15
106 | RRIRSRPPRLPRPRPRPPQWPRP | 0.504
107 | RRIRSRPPRLPRPRPRPEMKPRP | 0.114
108 | RRIRMRPPRLPRPRPRPRETPRP | 1.49
109 | RRIRVRPPRLPRPRPRPLHFPRP | -0.346
110 | RRIRLRPPRLPRPRPRPWCNPRP | -0.121
111 | RRIRPRPPRLPRPRPRPYKKPRP | -0.574
112 | RRIRWRPPRLPRPRPRPCYFPRP | -0.0204
113 | RRIRNRPPRLPRPRPRPHSPPRP | -0.415
114 | RRIRLRPPRLPRPRPRPFQCPRP | 0.000653
115 | RRIRIRPPRLPRPRPRPVAFPRP | -0.306
116 | RRIRFRPPRLPRPRPRPIQMPRP | -0.0945
117 | RRIRIRPPRLPRPRPRPKFVPRP | -0.0693
118 | RRIRDRPPRLPRPRPRPQRWPRP | 0.287
119 | RRIRYRPPRLPRPRPRPVDQPRP | -0.611
120 | RRIRGRPPRLPRPRPRPDISPRP | -0.0115
121 | RRIRARPPRLPRPRPRPKDNPRP | 0.153
122 | RRIRERPPRLPRPRPRPLMCPRP | -0.267
123 | RRIRGRPPRLPRPRPRPCREPRP | -0.368
124 | RRIRYRPPRLPRPRPRPDASPRP | -0.00663
125 | RRIRQRPPRLPRPRPRPVATPRP | -0.00506

Row | Sequence | shrunken log2 fold change
126 | RRIRERPPRLPRPRPRPWAEPRP | 0.0285
127 | RRIRLRPPRLPRPRPRPCLNPRP | -0.0428
128 | RRIRPRPPRLPRPRPRPAVVPRP | 0.197
129 | RRIRERPPRLPRPRPRPINTPRP | -0.351
130 | RRIRERPPRLPRPRPRPTWMPRP | 0.0534
131 | RRIRPRPPRLPRPRPRPCFKPRP | -0.341
132 | RRIRPRPPRLPRPRPRPIGFPRP | 0.2
133 | RRIRIRPPRLPRPRPRPEMKPRP | -0.037
134 | RRIRIRPPRLPRPRPRPTAEPRP | -0.0333
135 | RRIRGRPPRLPRPRPRPQSHPRP | 0.214
136 | RRIRNRPPRLPRPRPRPVIPPRP | -0.462
137 | RRIRVRPPRLPRPRPRPHAFPRP | 0.0978
138 | RRIRVRPPRLPRPRPRPTENPRP | 0.00381
139 | RRIRSRPPRLPRPRPRPYGGPRP | -0.608
140 | RRIRLRPPRLPRPRPRPINWPRP | -0.434
141 | RRIRMRPPRLPRPRPRPTREPRP | 0.947
142 | RRIRCRPPRLPRPRPRPPFHPRP | -0.224
143 | RRIRDRPPRLPRPRPRPSNAPRP | -0.184
144 | RRIRTRPPRLPRPRPRPVFTPRP | -0.105
145 | RRIRLRPPRLPRPRPRPSPRPRP | 0.307
146 | RRIRERPPRLPRPRPRPDHLPRP | -0.223
147 | RRIRIRPPRLPRPRPRPPACPRP | 0.498
148 | RRIRSRPPRLPRPRPRPKVLPRP | 0.248
149 | RRIRHRPPRLPRPRPRPMYLPRP | -0.412
150 | RRIRNRPPRLPRPRPRPGFTPRP | 0.0826
